± gives the uncertainty stated by the source.

From the supplement of paper PMC7877785 come the findings set out here.

The nature of the series: self-splicing fitness, log relative to wild type (ln ratio); higher = more splicing; Tetrahymena group I intron in knt gene, E. coli kanamycin selection, DiMSum; sequences stand for … in CUCUCU…GGAGGGAAAAGUUAUCAGGCAUGCACCUGGUAGCUAGUCUUUAAACCAAUAGAUUGCAUCGGUUUAAAAGGCAAGACCGUCAAAUUGCGGGAAAGGGGUCAACAGCCGUUCAGUACCAAGUCUCAGGGGAAACUUUGAGAUGGCCUUGCAAAGGGUAUGGUAAUAAGCUGACGGACAUGGUCCUAACCACGCAGCCAAGUCCUAAGUCAACAGAUCUUCUGUUGAUAUGGAUGCAGUUCACAGACUAAAUGUCGGUCGGGGAAGAUGUAUUCUUCUCAUAAGAUAUAGUCGGACCUCUCCUUAAUGGGAGCUAGCGGAUGAAGUGAUGCAACACUGGAGCCGCUGGGAACUAAUUUGUAUGCGAAAGUAUAUUGAUUAGUUUUGGAGUACUCGUGGUCG
In short, it runs like this: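 DiMSum derived fitness as the error-weighted combination of fold changes across replicates, kanamycin versus no kanamycin, normalised to wild type. E. coli BL21(DE3) held the library, which randomised all eight P1ex-region intron nucleotides within the knt kanamycin-resistance gene on pET-22b(+). Six replicate transformations grew overnight at 37°C or 30°C on LB agar with or without 25 μg/mL kanamycin, also containing 100 μg/mL carbenicillin, 50 μM IPTG and 0.2% rhamnose, and pooled colonies were amplicon-sequenced on an Illumina HiSeq 2500.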

As to AUGAAGCAAUAUUACGACGC, the “self-splicing fitness (ln)” value (30 °C) was 0.112 ± 0.13 and the “self-splicing fitness (ln)” value (37 °C) was -0.034 ± 0.17.

With AUAGAGCAAUAUUACGUAGU, the “self-splicing fitness (ln)” value is, setting by setting: (30 °C) -1.69 ± 0.12; (37 °C) -0.153 ± 0.15. For the sequence GGACAGCAAUAUUACGGCUC, the “self-splicing fitness (ln)” value reads like this: (30 °C) 0.0372 ± 0.08; (37 °C) 0.377 ± 0.11. For UGGUAGCAAUAUUACGGGAA the same measures were -2.02 ± 0.22 and -1.6 ± 0.19. For AGGAAGCAAUAUUACGCGAC the same measures were -2.62 ± 0.45 and -0.793 ± 0.31. For UUUCAGCAAUAUUACGGAUC the same measures were -1.14 ± 0.07 and -0.289 ± 0.089. For CAAUAGCAAUAUUACGAUAA, the “self-splicing fitness (ln)” value is, setting by setting: (30 °C) -3.24 ± 0.48; (37 °C) -3.1 ± 0.33. For CCUGAGCAAUAUUACGCACA the same measures were -1.53 ± 0.17 and -1.6 ± 0.35.

As to AAUGAGCAAUAUUACGUUCA, the “self-splicing fitness (ln)” value (30 °C) was -1.46 ± 0.12 and the “self-splicing fitness (ln)” value (37 °C) was -0.27 ± 0.13. For UACCAGCAAUAUUACGGAGA the same measures were -1.13 ± 0.07 and -0.596 ± 0.073. For UGGUAGCAAUAUUACGUCUA the same measures were -0.44 ± 0.096 and 0.358 ± 0.12. For UCCAAGCAAUAUUACGAUUG the same measures were -4.13 ± 0.33 and -1.78 ± 0.2.

For the sequence AAGUAGCAAUAUUACGGGCC, the “self-splicing fitness (ln)” value (37 °C) was -1.88 ± 0.37. As for CUUCAGCAAUAUUACGAGUG, the “self-splicing fitness (ln)” value by setting is: (30 °C) -0.689 ± 0.051; (37 °C) -0.602 ± 0.071. For AUGCAGCAAUAUUACGGAGG the same measures were -3.79 ± 0.2 and -2.07 ± 0.15. For AUUCAGCAAUAUUACGCCCU the same measures were 0.164 ± 0.13 and 0.287 ± 0.21.

In the case of CGGAAGCAAUAUUACGUACG, the “self-splicing fitness (ln)” value is -3.87 ± 0.24 (30 °C) and -2.26 ± 0.21 (37 °C).

Consider GAUAAGCAAUAUUACGAUGU, for which the “self-splicing fitness (ln)” value is -0.525 ± 0.082 (30 °C) and -0.545 ± 0.1 (37 °C). For ACCAAGCAAUAUUACGGCCA the same measures were -0.654 ± 0.099 and 0.134 ± 0.12.

Consider CACAAGCAAUAUUACGUCGG, for which the “self-splicing fitness (ln)” value runs as follows: (30 °C) -0.785 ± 0.05; (37 °C) -0.422 ± 0.063.

For the sequence CGGUAGCAAUAUUACGUGUG, the “self-splicing fitness (ln)” value is -0.17 ± 0.062 (30 °C) and 0.0947 ± 0.09 (37 °C). For AGAGAGCAAUAUUACGUGGA the same measures were -3.15 ± 0.4 and -2.3 ± 0.5. In the case of UCUCAGCAAUAUUACGCUCU, the “self-splicing fitness (ln)” value runs as follows: (30 °C) -3.26 ± 0.26; (37 °C) -2.68 ± 0.41. For UUUCAGCAAUAUUACGUACG the same measures were -0.905 ± 0.12 and -0.18 ± 0.11.

For the sequence ACGGAGCAAUAUUACGCUCU, the “self-splicing fitness (ln)” value reads like this: (30 °C) -3.26 ± 0.32; (37 °C) -1.22 ± 0.3.

Turning to GAGGAGCAAUAUUACGCGCA, the “self-splicing fitness (ln)” value is, setting by setting: (30 °C) -2.42 ± 0.2; (37 °C) -0.968 ± 0.16. For CCUUAGCAAUAUUACGAUCG the same measures were -0.392 ± 0.07 and -0.134 ± 0.1. Consider CGUGAGCAAUAUUACGCGCU, for which, where the note is “37 °C”, the “self-splicing fitness (ln)” value was -1.8 ± 0.36. Consider GCCAAGCAAUAUUACGGAGC, for which the “self-splicing fitness (ln)” value (30 °C) is -3.32 ± 0.1 and the “self-splicing fitness (ln)” value (37 °C) is -2.38 ± 0.12. With UUAGAGCAAUAUUACGGGGC, the “self-splicing fitness (ln)” value (30 °C) is -3.24 ± 0.44. As for GGGCAGCAAUAUUACGUGAU, the “self-splicing fitness (ln)” value reads like this: (30 °C) -1.61 ± 0.11; (37 °C) 0.0478 ± 0.11. For GCAUAGCAAUAUUACGCUGC the same measures were -3.08 ± 0.44 and -2.11 ± 0.37.

Consider CGGAAGCAAUAUUACGCCCU, for which the “self-splicing fitness (ln)” value was -0.363 ± 0.13 (30 °C) and 0.204 ± 0.15 (37 °C).

Regarding AUGGAGCAAUAUUACGCACC, the “self-splicing fitness (ln)” value is -2.45 ± 0.4 (30 °C) and -1.26 ± 0.22 (37 °C). For the sequence GAGGAGCAAUAUUACGUCGA, the “self-splicing fitness (ln)” value runs as follows: (30 °C) -2.17 ± 0.16; (37 °C) -1.61 ± 0.15. For GCCAAGCAAUAUUACGUGAC the same measures were -1.89 ± 0.13 and -0.468 ± 0.12. In the case of CUUGAGCAAUAUUACGGUCC, where the note is “30 °C”, the “self-splicing fitness (ln)” value was -0.924 ± 0.28.

With AGGCAGCAAUAUUACGCGAA, the “self-splicing fitness (ln)” value is, setting by setting: (30 °C) -1.54 ± 0.095; (37 °C) -0.675 ± 0.13. For ACACAGCAAUAUUACGAGCC, the “self-splicing fitness (ln)” value reads like this: (30 °C) -1.97 ± 0.17; (37 °C) -0.179 ± 0.19.
